Assay results: patent US20180346580A1 (INTERVET, published 2018)
Several values for one entry are separate records, joined by “and”; a condition that tells them apart may be missing. Equal values may be shown once.

B1: canine IL-4 receptor alpha chain (full length) expressed on the surface of CHO DG44 cells (receptor)
chain: VKVLHEPSCFSDYISTSVCQWKMDHPTNCSAELRLSYQLDFMGSENHTCVPENREDSVCVCSMPIDDAVEADVYQLDLWAGQQLLWSGSFQPSKHVKPRTPGNLTVHPNISHTWLLMWTNPYPTENHLHSELTYMVNVSNDNDPEDFKVYNVTYMGPTLRLAASTLKSGASYSARVRAWAQTYNSTWSDWSPSTTWLNYYEPWEQHLPLGVSISCLVILAICLSCYFSIIKIKKGWWDQIPNPAHSPLVAIVIQDSQVSLWGKRSRGQEPAKCPHWKTCLTKLLPCLLEHGLGREEESPKTAKNGPLQGPGKPAWCPVEVSKTILWPESISVVQCVELSEAPVDNEEEEEVEEDKRSLCPSLEGSGGSFQEGREGIVARLTESLFLDLLGGENGGFCPQGLEESCLPPPSGSVGAQMPWAQFPRAGPRAAPEGPEQPRRPESALQASPTQSAGSSAFPEPPPVVTDNPAYRSFGSFLGQSSDPGDGDSDPELADRPGEADPGIPSAPQPPEPPAALQPEPESWEQILRQSVLQHRAAPAPGPGPGSGYREFTCAVKQGSAPDAGGPGFGPSGEAGYKAFCSLLPGGATCPGTSGGEAGSGEGGYKPFQSLTPGCPGAPTPVPVPLFTFGLDTEPPGSPQDSLGAGSSPEHLGVEPAGKEEDSRKTLLAPEQATDPLRDDLASSIVYSALTCHLCGHLKQWHDQEERGKAHIVPSPCCGCCCGDRSSLLLSPLRAPNVLPGGVLLEASLSPASLVPSGVSKEGKSSPFSQPASSSAQSSSQTPKKLAVLSTEPTCMSAS
notes: also called cIL-4Rα; CHO-cIL-4Rα
B2: canine IL-4 (R&D system, cat #754-CL/CF), biotinylated (ligand, UniProt O77762 25-132, looked up)
chain: HNFNITIKEIIKMLNILTARNDSCMELTVKDVFTAPKNTSDKEIFCRAATVLRQIYTHNCSNRYLRGLYRNLSSMANKTCSMNEIKKSTLKDFLERLKVIMQKKYYRH
modifications: biotinylated with Lightning-Link Biotin Conjugation Kit Type A
notes: Purchased protein; also called canine interleukin-4; biotinylated canine IL-4

How the values were obtained:
[1] = biological target: B2; assay: FACS, biotinylated canine IL-4 on CHO cells expressing canine IL-4Rα
[2] = biological target: B1; assay: flow cytometry, cell-based CHO-cIL-4Rα binding assay
[3] = biological target: B1; assay: flow cytometry, binding to CHO-cIL-4Rα cells
[4] = biological target: B1; assay: flow cytometry ligand blockade on CHO-cIL-4Rα cells; competitor biotinylated canine IL-4 at 0.32 µg/mL; one of two separate studies
Method: Procedure: [0247] 1. CHO-DH44-canIL-4Rα cell grown to 2-4 ×10⁶ cells/mL with more than 96% viability. [0248] 2. The cells were spun down, the supernatant discarded, and the cells were suspended in FACS buffer to 2×10⁷ cells/mL. [0249] 3. The cells were distributed into a U-shape 96-well plate, 50 μl each well. [0250] 4. The anti-canine IL-4Rα mAbs in FACS buffer was diluted three-fold on a 96-well plate from top down to bottom well, starting at 50 μg/mL. [0251] 5. 50 μl of each diluted Ab was transferred into the cell plate and then incubated on ice for 30 min. [0252] 6. The cells were washed twice with FACS buffer. [0253] 7. The cells were resuspended into 100 μl of biotinylated canine IL-4 at 0.32 μg/mL in FACS buffer and incubated on ice for 30 min. [0254] 8. The cells were washed twice with FACS buffer. [0255] 9. The cells were responded into 100 μl of R-phycoerythin conjugated Streptavidin (1:1000 dilution) in FACS buffer and incubated on ice for 30 min. [0256] 10. The cells were washed twice with FACS buffer. [0257] 11. The cells were brought up to 300 μl in FACS buffer. [0258] 12. 10,000 cells were read for each sample by BD Accuri-C6. [0259] 13. The resulting readout were analyzed by FlowJo to get the mean fluorescent intensity (MFI).

B1: binds [1].

In the case of B2, the EC50 [2] is reported as 25 nM.

B3: mouse anti-canine IL-4Rα monoclonal antibody 11H2 (antibody, V domains shown)
VH: DVKLVESGGGLVQPGGSLKLSCAASGFTFSDYYMYWVRQTPEKRLEWVAYVSSGGGSIYYPDTVKGRFTISRDNAKNTLYLQMSRLKSEDTAMYYCARHGSPFGSSRGAWFAYWGQGTLVTVSA
VL: DIQMTQSPASLSASVGETVTITCRASENIYSYLAWYQQKQGKSPQLLVYNAKTLAEGVPSRFSGSGSGTQFSLKINSLQPEDFGNYYCQHYDGFPFTFGGGTKLELK
notes: Hybridoma-derived mouse antibody; also called mAb 11H2
In the case of B3, the EC50 [3] is reported as 1.2 nM and the IC50 [4] is reported as 1.7 nM and 1 nM.
